“And” between values parts separate entries of the source, which are not always exact repeats. Equal values may be shown once.
Assays:
[1] = target: FHCS-1 (RSV strain A2) (UniProt P03420); assay: ELISA; F coated 625 ng/ml; stored -80° C.
[2] = target: FHCS-2 (RSV strain A2) (UniProt P03420); assay: ELISA; F coated 625 ng/ml; stored -80° C.
[3] = target: FHCS-4 (RSV strain A2) (UniProt P03420); assay: ELISA; F coated 625 ng/ml; stored -80° C.
[4] = target: FHCS-1 (RSV strain A2) (UniProt P03420); assay: ELISA; F coated 1250 ng/ml; stored -80° C.
[5] = target: FHCS-2 (RSV strain A2) (UniProt P03420); assay: ELISA; F coated 1250 ng/ml; stored -80° C.
[6] = target: FHCS-4 (RSV strain A2) (UniProt P03420); assay: ELISA; F coated 1250 ng/ml; stored -80° C.
[7] = target: FHCS-1 (RSV strain A2) (UniProt P03420); assay: ELISA; F coated 2500 ng/ml; stored -80° C.
[8] = target: FHCS-2 (RSV strain A2) (UniProt P03420); assay: ELISA; F coated 2500 ng/ml; stored -80° C.
[9] = target: FHCS-4 (RSV strain A2) (UniProt P03420); assay: ELISA; F coated 2500 ng/ml; stored -80° C.
[10] = target: FHCS-2 (RSV strain A2) (UniProt P03420); assay: ELISA; F coated 312.5 ng/ml; stored -80° C.
[11] = target: FHCS-4 (RSV strain A2) (UniProt P03420); assay: ELISA; F coated 312.5 ng/ml; stored -80° C.
[12] = target: FHCS-1 (RSV strain A2) (UniProt P03420); assay: ELISA; F coated 312.5 ng/ml; stored -80° C.
[13] = target: FHCS-2 (RSV strain A2) (UniProt P03420); assay: ELISA; F coated 312.5 ng/ml; stored -80° C.; remark: listed apart in the source
[14] = target: FHCS-4 (RSV strain A2) (UniProt P03420); assay: ELISA; F coated 312.5 ng/ml; stored -80° C.; remark: listed apart in the source
[15] = target: FHCS-1 (RSV strain A2) (UniProt P03420); assay: ELISA; F coated 625 ng/ml; stored 37° C. 4 W
[16] = target: FHCS-2 (RSV strain A2) (UniProt P03420); assay: ELISA; F coated 625 ng/ml; stored 37° C. 4 W
[17] = target: FHCS-4 (RSV strain A2) (UniProt P03420); assay: ELISA; F coated 625 ng/ml; stored 37° C. 4 W
[18] = target: FHCS-1 (RSV strain A2) (UniProt P03420); assay: ELISA; F coated 1250 ng/ml; stored 37° C. 4 W
[19] = target: FHCS-2 (RSV strain A2) (UniProt P03420); assay: ELISA; F coated 1250 ng/ml; stored 37° C. 4 W
[20] = target: FHCS-4 (RSV strain A2) (UniProt P03420); assay: ELISA; F coated 1250 ng/ml; stored 37° C. 4 W
[21] = target: FHCS-1 (RSV strain A2) (UniProt P03420); assay: ELISA; F coated 2500 ng/ml; stored 37° C. 4 W
[22] = target: FHCS-2 (RSV strain A2) (UniProt P03420); assay: ELISA; F coated 2500 ng/ml; stored 37° C. 4 W
[23] = target: FHCS-4 (RSV strain A2) (UniProt P03420); assay: ELISA; F coated 2500 ng/ml; stored 37° C. 4 W
[24] = target: FHCS-1 (RSV strain A2) (UniProt P03420); assay: ELISA; F coated 5000 ng/ml; stored 37° C. 4 W
[25] = target: FHCS-2 (RSV strain A2) (UniProt P03420); assay: ELISA; F coated 5000 ng/ml; stored 37° C. 4 W
[26] = target: FHCS-4 (RSV strain A2) (UniProt P03420); assay: ELISA; F coated 5000 ng/ml; stored 37° C. 4 W
[27] = target: FHCS-1 (RSV strain A2) (UniProt P03420); assay: ELISA; F coated 312.5 ng/ml; stored 37° C. 4 W
[28] = target: FHCS-2 (RSV strain A2) (UniProt P03420); assay: ELISA; F coated 312.5 ng/ml; stored 37° C. 4 W
[29] = target: FHCS-4 (RSV strain A2) (UniProt P03420); assay: ELISA; F coated 312.5 ng/ml; stored 37° C. 4 W
[30] = target: FHCS-1 (RSV strain A2) (UniProt P03420); assay: ELISA; F coated 625 ng/ml; stored -80° C.; remark: listed apart in the source
[31] = target: FHCS-2 (RSV strain A2) (UniProt P03420); assay: ELISA; F coated 625 ng/ml; stored -80° C.; remark: listed apart in the source
[32] = target: FHCS-4 (RSV strain A2) (UniProt P03420); assay: ELISA; F coated 625 ng/ml; stored -80° C.; remark: listed apart in the source
[33] = target: FHCS-1 (RSV strain A2) (UniProt P03420); assay: ELISA; F coated 2500 ng/ml; stored 37° C. 2 W
[34] = target: FHCS-2 (RSV strain A2) (UniProt P03420); assay: ELISA; F coated 2500 ng/ml; stored 37° C. 2 W
[35] = target: FHCS-1 (RSV strain A2) (UniProt P03420); assay: ELISA; F coated 156.3 ng/ml; stored 37° C. 4 W
[36] = target: FHCS-2 (RSV strain A2) (UniProt P03420); assay: ELISA; F coated 156.3 ng/ml; stored 37° C. 4 W
[37] = target: FHCS-4 (RSV strain A2) (UniProt P03420); assay: ELISA; F coated 156.3 ng/ml; stored 37° C. 4 W

Substance	OD value [1]	OD value [2]	OD value [3]	OD value [4]	OD value [5]	OD value [6]	OD value [7]	OD value [8]	OD value [9]	OD value [10]	OD value [11]	OD value [15]	OD value [16]	OD value [17]	OD value [18]	OD value [19]	OD value [20]	OD value [21]	OD value [22]	OD value [23]	further results
AM14 monoclonal antibody	0.003 OD and 0.005 OD	0.005 OD and 0.006 OD	0.007 OD	0.006 OD	0.009 OD and 0.013 OD	0.013 OD and 0.011 OD	0.021 OD and 0.03 OD	0.02 OD and 0.024 OD	0.04 OD and 0.028 OD	0.005 OD	0.004 OD and 0.007 OD	0.006 OD and 0.008 OD	0.005 OD and 0.006 OD	0.006 OD and 0.007 OD	0.018 OD and 0.024 OD	0.025 OD and 0.019 OD	0.007 OD and 0.008 OD	0.109 OD and 0.096 OD	0.45 OD and 0.185 OD	0.045 OD and 0.019 OD	OD value [12]: 0.003 OD and 0.006 OD; OD value [13]: 0.007 OD; OD value [14]: 0.008 OD and 0.006 OD; OD value [24]: 1.17 OD and 1.33 OD; OD value [25]: 1.95 OD and 1.48 OD; OD value [26]: 0.665 OD and 0.438 OD; OD value [27]: 0.005 OD; OD value [28]: 0.005 OD; OD value [29]: 0.004 OD and 0.007 OD
Synagis® (antibody)	0.17 OD and 0.181 OD	0.209 OD and 0.208 OD	0.094 OD and 0.066 OD	0.357 OD and 0.35 OD	0.572 OD and 0.767 OD	0.252 OD and 0.209 OD	1.35 OD	1.65 OD and 1.91 OD	0.825 OD and 0.743 OD	0.089 OD and 0.108 OD	0.052 OD and 0.033 OD	0.324 OD and 0.612 OD	0.42 OD and 0.4 OD	0.378 OD and 0.389 OD	1.17 OD and 1.22 OD	0.995 OD and 0.91 OD	1.05 OD and 0.985 OD	1.91 OD and 2.11 OD	1.82 OD and 1.84 OD	1.8 OD and 1.78 OD	OD value [30]: 0.161 OD and 0.154 OD; OD value [31]: 0.409 OD and 0.307 OD; OD value [32]: 0.11 OD; OD value [33]: 1.88 OD and 1.43 OD; OD value [34]: 1.6 OD and 1.85 OD; OD value [27]: 0.142 OD and 0.168 OD; OD value [28]: 0.154 OD and 0.143 OD; OD value [29]: 0.138 OD and 0.12 OD; OD value [35]: 0.055 OD and 0.062 OD; OD value [36]: 0.069 OD and 0.058 OD; OD value [37]: 0.05 OD and 0.048 OD

Source: patent US20260117202A1
